# Reference: IntAct's records for PubMed 31515488
# B1: Break repair meiotic recombinase recruitment factor 1 (Homo sapiens), Q0VDD7 (parent)
# chain: MTKRKKLRTSGEGLCPPKPLKNPRLGDFYGDPQSSMLGCLHHPEEPEGKLGPVPSTQQHGEEPGKAVSSSPDEETGSPCRLLRQPEKEPAPLPPSQNSFGRFVPQFAKSRKTVTRKEEMKDEDRGSGAFSLETIAESSAQSPGCQLLVETLGVPLQEATELGDPTQADSARPEQSSQSPVQAVPGSGDSQPDDPPDRGTGLSASQRASQDHLSEQGADDSKPETDRVPGDGGQKEHLPSIDSEGEKPDRGAPQEGGAQRTAGAGLPGGPQEEGDGVPCTPASAPTSGPAPGLGPASWCLEPGSVAQGSPDPQQTPSRMGREGEGTHSSLGCSSLGMVVIADLSTDPTELEERALEVAGPDGQASAISPASPRRKAADGGHRRALPGCTSLTGETTGESGEAGQDGKPPGDVLVGPTASLALAPGSGESMMGAGDSGHASPDTGPCVNQKQEPGPAQEEAELGGQNLERDLEGFRVSPQASVVLEHREIADDPLQEPGAQQGIPDTTSELAGQRDHLPHSADQGTWADSLAVELDFLLDSQIQDALDASDFEAPPEQLFPSGNKPGPCWPGPSSHANGDPVAVAKAQPRTFVGIQASEASRMEDATNVVRGLIVELSNLNRLIMGTHRDLEAFKRLNYRKTKLGGKAPLPYPSKGPGNIPRGDPPWREL
# partner: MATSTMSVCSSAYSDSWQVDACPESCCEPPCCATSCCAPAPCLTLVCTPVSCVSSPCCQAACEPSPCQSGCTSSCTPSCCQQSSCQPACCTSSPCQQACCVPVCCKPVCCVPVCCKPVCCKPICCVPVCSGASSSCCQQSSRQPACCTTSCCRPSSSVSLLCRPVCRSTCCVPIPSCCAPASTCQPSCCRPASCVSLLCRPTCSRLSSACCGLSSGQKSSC
# B2: IQ motif and ubiquitin-like domain-containing protein (Homo sapiens), Q8NA54 (parent)
# chain: MSNQQEKYEAQNIVNSTEESDDAFDTVTIPVPSEEPQESDQTEEHESGIEQFSESHAIHVEEQSDQSFSSLEPDNEQLMEEVISPRQVSYTPQHHEKQYAMQRPNDDSLAFLDKIKSVKESLQESVEDSLATVKVVLIPVGQEIVIPFKVDTILKYLKDHFSHLLGIPHSVLQIRYSGKILKNNETLVQHGVKPQEIVQVEIFSTNPDLYPVRRIDGLTDVSQIITVTVQTGLDQYQQVPVEIVKSDFHKPFLGGFRHKVTGVEYHNAGTQTVPKRIPERLSIFCRDTQTVFQKKNLQQTTNTTSTQMTNIGVYVSNMTDKLVTPGKYFSAAEYHAQRLKAVIVIQTYYRQWHAKIFVENLRRQKSLRLEWETQQELRKIREKEEWIKLDYHRRHNPKTNEDFEFLYNALEFWRQEELTRINQSFTGAERKAALCELLEKETQIIASIGRHRYIAYMANQEAAIQAFLDKCSAPKIWRTPNGKTIEMDTQFTIRARELQNIYKCIMLKNISQDERLDVLLTLKHTVKEHECKLTQEILELIDREVDLMMRGVKHHNLEGLRKRIATLFFHYIKTPLFNPEVAKYLKVPQDPLKFYKKIYFCHSCQLYLPSTEFSVSSTSRRIYRCRNCINLQNEAQKRESFLKYKCLLQQLYYTEADYEDDSKIAFLMQLQDIQYLTENIWASQSVLSACDNLSDLVMVRWNKSLEWSPWNCILLTKDEAAAHLKLTSIEEGYERSFIHKIKHKHILAKNYFSQVPVLASFILDDGEIDEIRWKYHSDTTPKIIESQRPPH
# partner: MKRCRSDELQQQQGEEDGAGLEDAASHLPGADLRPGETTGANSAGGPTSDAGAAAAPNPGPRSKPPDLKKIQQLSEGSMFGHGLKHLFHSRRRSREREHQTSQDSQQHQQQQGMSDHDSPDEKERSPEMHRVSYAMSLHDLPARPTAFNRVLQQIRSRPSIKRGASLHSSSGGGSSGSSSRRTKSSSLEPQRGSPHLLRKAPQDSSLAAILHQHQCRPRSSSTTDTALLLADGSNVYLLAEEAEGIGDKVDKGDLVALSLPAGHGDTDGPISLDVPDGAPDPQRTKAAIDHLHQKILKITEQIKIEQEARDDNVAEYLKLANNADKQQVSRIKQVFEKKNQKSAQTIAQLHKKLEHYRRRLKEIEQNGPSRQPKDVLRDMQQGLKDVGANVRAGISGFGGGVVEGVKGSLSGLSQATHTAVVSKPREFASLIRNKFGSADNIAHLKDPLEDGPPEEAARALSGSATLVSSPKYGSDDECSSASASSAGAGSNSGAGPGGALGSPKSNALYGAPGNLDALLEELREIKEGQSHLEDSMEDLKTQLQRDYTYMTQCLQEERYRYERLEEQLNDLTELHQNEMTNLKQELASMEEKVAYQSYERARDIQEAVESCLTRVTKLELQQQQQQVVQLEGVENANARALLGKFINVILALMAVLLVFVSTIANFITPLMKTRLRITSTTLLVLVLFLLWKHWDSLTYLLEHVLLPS
# B3: EF-hand domain-containing protein 1 (Homo sapiens), Q5JVL4 (parent)
# chain: MVSNPVHGLPFLPGTSFKDSTKTAFHRSQTLSYRNGYAIVRRPTVGIGGDRLQFNQLSQAELDELASKAPVLTYGQPKQAPPADFIPAHVAFDKKVLKFDAYFQEDVPMSTEEQYRIRQVNIYYYLEDDSMSVIEPVVENSGILQGKLIKRQRLAKNDRGDHYHWKDLNRGINITIYGKTFRVVDCDQFTQVFLESQGIELNPPEKMALDPYTELRKQPLRKYVTPSDFDQLKQFLTFDKQVLRFYAIWDDTDSMYGECRTYIIHYYLMDDTVEIREVHERNDGRDPFPLLMNRQRVPKVLVENAKNFPQCVLEISDQEVLEWYTAKDFIVGKSLTILGRTFFIYDCDPFTRRYYKEKFGITDLPRIDVSKREPPPVKQELPPYNGFGLVEDSAQNCFALIPKAPKKDVIKMLVNDNKVLRYLAVLESPIPEDKDRRFVFSYFLATDMISIFEPPVRNSGIIGGKYLGRTKVVKPYSTVDNPVYYGPSDFFIGAVIEVFGHRFIILDTDEYVLKYMESNAAQYSPEALASIQNHVRKREAPAPEAESKQTEKDPGVQELEALIDTIQKQLKDHSCKDNIREAFQIYDKEASGYVDRDMFFKICESLNVPVDDSLVKELIRMCSHGEGKINYYNFVRAFSN
# B4: Stabilizer of axonemal microtubules 1 (Homo sapiens), Q8IYX7 (parent)
# chain: MKTKCICELCSCGRHHCPHLPTKIYDKTEKPCLLSEYTENYPFYHSYLPRESFKPRREYQKGPIPMEGLTTSRRDFGPHKVAPVKVHQYDQFVPSEENMDLLTTYKKDYNPYPVCRVDPIKPRDSKYPCSDKMECLPTYKADYLPWNQPRREPLRLEHKYQPASVRFDNRTTHQDDYPIKGLVKTISCKPLAMPKLCNIPLEDVTNYKMSYVAHPVEKRFVHEAEKFRPCEIPFESLTTQKQSYRGLMGEPAKSLKPLARPPGLDMPFCNTTEFRDKYQAWPMPRMFSKAPITYVPPEDRMDLLTTVQAHYTCPKGAPAQSCRPALQIKKCGRFEGSSTTKDDYKQWSSMRTEPVKPVPQLDLPTEPLDCLTTTRAHYVPHLPINTKSCKPHWSGPRGNVPVESQTTYTISFTPKEMGRCLASYPEPPGYTFEEVDALGHRIYKPVSQAGSQQSSHLSVDDSENPNQRELEVLA
# partner: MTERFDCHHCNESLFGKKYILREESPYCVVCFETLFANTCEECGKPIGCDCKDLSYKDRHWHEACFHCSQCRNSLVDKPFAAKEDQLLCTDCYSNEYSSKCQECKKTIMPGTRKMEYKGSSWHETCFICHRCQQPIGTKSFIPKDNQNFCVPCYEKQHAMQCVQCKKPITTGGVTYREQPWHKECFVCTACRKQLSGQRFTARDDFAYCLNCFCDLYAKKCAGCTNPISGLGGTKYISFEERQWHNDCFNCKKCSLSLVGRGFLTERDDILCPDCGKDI
# B5: Syntenin-2 (Homo sapiens), Q9H190 (parent)
# chain: MSSLYPSLEDLKVDQAIQAQVRASPKMPALPVQATAISPPPVLYPNLAELENYMGLSLSSQEVQESLLQIPEGDSTAVSGPGPGQMVAPVTGYSLGVRRAEIKPGVREIHLCKDERGKTGLRLRKVDQGLFVQLVQANTPASLVGLRFGDQLLQIDGRDCAGWSSHKAHQVVKKASGDKIVVVVRDRPFQRTVTMHKDSMGHVGFVIKKGKIVSLVKGSSAARNGLLTNHYVCEVDGQNVIGLKDKKIMEILATAGNVVTLTIIPSVIYEHMVKKLPPVLLHHTMDHSIPDA
# Variants of: B1
# Conditions: with kr103_human KRTAP10-3, P60369
row,Variant,effect of a mutation on the interaction
1,L155F,with no effect
2,Q500R,with no effect
3,G267R,with no effect

# Variants of: B2
# Conditions: with tmcc2_human TMCC2, O75069
row,Variant,effect of a mutation on the interaction
1,V126M,with no effect
2,I501F,disrupting interaction strength

# Variants of: B3
# Conditions: with itf2_human TCF4, P15884
# Chain of itf2_human TCF4, P15884 (P15884 whole entry): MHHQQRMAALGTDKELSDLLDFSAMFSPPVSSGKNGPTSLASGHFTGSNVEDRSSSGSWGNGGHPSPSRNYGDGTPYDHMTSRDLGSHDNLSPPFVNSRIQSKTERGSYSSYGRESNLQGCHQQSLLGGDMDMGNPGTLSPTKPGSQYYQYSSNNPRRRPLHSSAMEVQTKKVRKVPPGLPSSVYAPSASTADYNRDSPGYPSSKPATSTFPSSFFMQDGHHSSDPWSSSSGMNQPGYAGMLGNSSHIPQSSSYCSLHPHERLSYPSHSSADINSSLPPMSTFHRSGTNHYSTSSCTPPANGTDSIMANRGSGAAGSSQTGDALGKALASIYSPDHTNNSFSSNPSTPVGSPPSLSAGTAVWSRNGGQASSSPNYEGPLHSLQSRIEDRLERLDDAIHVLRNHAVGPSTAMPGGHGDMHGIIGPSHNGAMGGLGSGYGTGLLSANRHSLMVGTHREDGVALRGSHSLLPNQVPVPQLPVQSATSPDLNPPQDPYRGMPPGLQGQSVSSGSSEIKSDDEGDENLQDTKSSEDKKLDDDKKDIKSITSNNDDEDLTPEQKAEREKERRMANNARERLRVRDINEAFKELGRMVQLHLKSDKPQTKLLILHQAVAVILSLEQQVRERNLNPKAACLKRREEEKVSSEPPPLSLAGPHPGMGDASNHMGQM
row,Variant,effect of a mutation on the interaction
1,F229L,with no effect
2,R159W,with no effect
3,Y102C,with no effect

# Variants of: B3
# Conditions: with ikzf3_human IKZF3, Q9UKT9
# Chain of ikzf3_human IKZF3, Q9UKT9 (Q9UKT9 whole entry): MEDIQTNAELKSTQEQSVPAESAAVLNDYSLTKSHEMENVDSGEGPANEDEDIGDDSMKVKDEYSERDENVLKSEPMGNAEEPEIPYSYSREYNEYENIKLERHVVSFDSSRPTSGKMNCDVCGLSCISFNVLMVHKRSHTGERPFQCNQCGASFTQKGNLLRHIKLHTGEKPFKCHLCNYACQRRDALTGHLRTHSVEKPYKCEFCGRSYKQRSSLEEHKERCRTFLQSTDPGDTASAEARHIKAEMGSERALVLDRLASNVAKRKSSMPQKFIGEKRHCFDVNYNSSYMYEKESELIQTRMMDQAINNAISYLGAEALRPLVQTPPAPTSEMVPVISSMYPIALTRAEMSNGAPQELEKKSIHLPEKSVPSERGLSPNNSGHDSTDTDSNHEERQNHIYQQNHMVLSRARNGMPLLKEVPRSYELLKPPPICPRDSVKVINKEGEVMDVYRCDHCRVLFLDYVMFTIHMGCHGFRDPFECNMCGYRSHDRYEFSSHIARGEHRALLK
row,Variant,effect of a mutation on the interaction
1,F229L,with no effect
2,R159W,with no effect
3,Y102C,with no effect

# Variants of: B4
# Conditions: with fhl2_human FHL2, Q14192
row,Variant,effect of a mutation on the interaction
1,N464K,disrupting interaction strength
2,D118G,disrupting interaction strength

# Variants of: B5
# Conditions: with zch10_human ZCCHC10, Q8TBK6
# Chain of zch10_human ZCCHC10, Q8TBK6 (Q8TBK6 whole entry): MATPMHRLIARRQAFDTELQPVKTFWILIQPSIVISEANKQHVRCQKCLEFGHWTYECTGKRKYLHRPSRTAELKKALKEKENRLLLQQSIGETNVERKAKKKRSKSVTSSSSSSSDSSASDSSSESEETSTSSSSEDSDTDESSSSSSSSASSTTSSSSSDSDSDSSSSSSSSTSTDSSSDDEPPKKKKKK
row,Variant,effect of a mutation on the interaction
1,G225R,disrupting interaction strength
2,V182M,with no effect
3,G242R,disrupting interaction strength

# Variants of: B5
# Conditions: with t23o_human TDO2, P48775
# Chain of t23o_human TDO2, P48775 (P48775 whole entry, looked up): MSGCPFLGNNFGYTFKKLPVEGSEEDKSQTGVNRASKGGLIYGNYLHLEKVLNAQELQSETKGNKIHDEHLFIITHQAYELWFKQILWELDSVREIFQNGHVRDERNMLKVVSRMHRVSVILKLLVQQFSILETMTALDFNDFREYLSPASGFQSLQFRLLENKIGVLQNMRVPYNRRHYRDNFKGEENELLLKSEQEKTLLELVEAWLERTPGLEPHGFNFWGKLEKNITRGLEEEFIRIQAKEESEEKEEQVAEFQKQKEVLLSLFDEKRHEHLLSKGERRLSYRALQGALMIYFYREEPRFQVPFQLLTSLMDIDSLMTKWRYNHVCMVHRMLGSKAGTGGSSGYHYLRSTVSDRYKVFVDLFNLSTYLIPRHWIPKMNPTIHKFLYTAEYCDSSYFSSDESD
row,Variant,effect of a mutation on the interaction
1,G225R,disrupting interaction strength
2,V182M,with no effect
3,G242R,disrupting interaction strength

# Variants of: B5
# Conditions: with lyar_human LYAR
row,Variant,effect of a mutation on the interaction
1,G225R,disrupting interaction strength
2,V182M,with no effect
3,G242R,disrupting interaction strength

# Variants of: B5
# Conditions: with ytdc1_human YTHDC1, Q96MU7
row,Variant,effect of a mutation on the interaction
1,G225R,disrupting interaction strength
2,V182M,disrupting interaction strength
3,G242R,disrupting interaction strength

# Variants of: B5
# Conditions: with FAM133A
row,Variant,effect of a mutation on the interaction
1,G225R,disrupting interaction strength
2,V182M,with no effect
3,G242R,disrupting interaction strength
